Data published in patent US20250121104A1 (FUSION PHARMACEUTICALS, published 2025).

T1: Ron (CD136) (UniProt Q04912 25-957, limits assumed)
T1 sequence (looked up): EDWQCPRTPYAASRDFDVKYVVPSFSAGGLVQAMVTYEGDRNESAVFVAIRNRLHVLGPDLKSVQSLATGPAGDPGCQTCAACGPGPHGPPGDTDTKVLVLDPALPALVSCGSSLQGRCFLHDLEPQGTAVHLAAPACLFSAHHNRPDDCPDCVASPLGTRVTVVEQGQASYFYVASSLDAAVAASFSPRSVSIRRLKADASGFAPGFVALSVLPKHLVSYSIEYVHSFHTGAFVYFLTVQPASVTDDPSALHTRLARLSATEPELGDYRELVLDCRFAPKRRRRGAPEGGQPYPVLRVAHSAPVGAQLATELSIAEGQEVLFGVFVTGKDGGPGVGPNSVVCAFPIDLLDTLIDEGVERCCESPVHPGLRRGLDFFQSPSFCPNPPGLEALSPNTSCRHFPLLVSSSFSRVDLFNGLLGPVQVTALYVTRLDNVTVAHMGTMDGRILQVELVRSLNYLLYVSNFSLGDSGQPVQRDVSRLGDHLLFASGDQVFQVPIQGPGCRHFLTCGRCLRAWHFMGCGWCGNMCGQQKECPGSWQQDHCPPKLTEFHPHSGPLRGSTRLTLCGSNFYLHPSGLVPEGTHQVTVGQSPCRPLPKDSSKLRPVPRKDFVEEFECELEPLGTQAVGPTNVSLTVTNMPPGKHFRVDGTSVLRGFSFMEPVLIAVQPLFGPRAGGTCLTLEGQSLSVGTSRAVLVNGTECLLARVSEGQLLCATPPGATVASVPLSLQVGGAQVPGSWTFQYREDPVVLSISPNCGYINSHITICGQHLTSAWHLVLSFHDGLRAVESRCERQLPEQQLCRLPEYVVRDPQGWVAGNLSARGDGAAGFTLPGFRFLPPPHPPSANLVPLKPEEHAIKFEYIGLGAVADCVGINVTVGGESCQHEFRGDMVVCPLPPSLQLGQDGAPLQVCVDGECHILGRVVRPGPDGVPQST

T2: Semaphorin 3a (UniProt Q14563 21-771, limits assumed)
T2 sequence (looked up): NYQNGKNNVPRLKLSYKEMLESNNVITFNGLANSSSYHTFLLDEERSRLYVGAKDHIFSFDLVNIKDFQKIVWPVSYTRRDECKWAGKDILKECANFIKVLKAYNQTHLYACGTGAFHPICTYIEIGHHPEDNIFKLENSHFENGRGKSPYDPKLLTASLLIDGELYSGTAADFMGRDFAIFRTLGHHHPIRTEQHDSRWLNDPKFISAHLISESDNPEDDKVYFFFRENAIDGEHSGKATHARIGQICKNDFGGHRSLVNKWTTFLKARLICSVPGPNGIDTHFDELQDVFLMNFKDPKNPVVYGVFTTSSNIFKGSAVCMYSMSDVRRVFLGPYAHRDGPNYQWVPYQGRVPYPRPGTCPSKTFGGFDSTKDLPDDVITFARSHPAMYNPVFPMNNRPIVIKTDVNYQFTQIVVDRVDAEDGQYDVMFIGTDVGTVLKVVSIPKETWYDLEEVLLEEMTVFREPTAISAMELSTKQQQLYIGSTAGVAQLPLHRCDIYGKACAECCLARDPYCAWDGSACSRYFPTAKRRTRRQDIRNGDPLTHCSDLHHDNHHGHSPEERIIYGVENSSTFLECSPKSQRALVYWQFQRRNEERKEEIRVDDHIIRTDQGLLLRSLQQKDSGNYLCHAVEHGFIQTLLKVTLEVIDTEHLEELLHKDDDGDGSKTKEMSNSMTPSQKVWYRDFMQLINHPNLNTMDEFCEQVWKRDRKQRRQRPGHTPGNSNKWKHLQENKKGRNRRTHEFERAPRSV


How the values were obtained:
mouse cMET (recombinant) = mouse cMET (recombinant) (mouse, UniProt P16056 25-929, limits assumed); experiment: ELISA, antigen coated at 1 µg/mL, antibody titrated from 10 µg/mL
Protocol: (§1) Specificity for EGFR and cMET species paralogs and closely related family members was determined by ELISA. Briefly, antigen solutions were prepared in PBS at 1 μg/mL and 50 microliters was coated onto half area ELISA assay plates. Plates were washed and blocked with 1% BSA in PBS containing 0.005% Tween-20 (PBS-T) for one hour at room temperature. […] Wells were incubated with 50 microliters of the indicated primary antibodies diluted in PBS-T in a 1:3 dilution series, starting at 10 μg/mL and ending at 0.002 μg/mL, except for the HER4 binding mAb control, MAB1131, for which the series started at 1 μg/mL. The wells were washed 4 times in PBS-T, then 50 μl of goat anti-human Fab HRP-labeled secondary antibody, diluted 1:5000 in PBS-T, was added to each well and incubated for one hour at room temperature. […] 50 microliters of TMB stop solution was added to all wells and the absorbance was read at 450 nm on a SpectraMax M5 microplate reader. Data were analyzed in the SoftMax Pro 5 software and plotted using GraphPad Prism 7 graphing software.
(§2) To determine the species cross reactivity, ELISA assays were carried out as described above.

Ron (CD136) = biological target: T1, Ron (CD136); experiment: as above
Protocol: as §1, §2

Semaphorin 3a = biological target: T2, Semaphorin 3a; experiment: as above
Protocol: as §1, §2

[1] = biological target: c-MET receptor on the cell surface (H1975 cells) (UniProt P08581); experiment: cell-based or functional assay
[2] = biological target: T3, cynomolgus monkey cMET (recombinant, soluble monomeric) (cynomolgus monkey, UniProt A0M8R7 25-932 (Papio anubis entry)); experiment: SPR (BIAcore T200), antibody captured on anti-human IgG, soluble monomeric antigen as analyte, 25 C, 1:1 fit
T3 construct: also called cyno cMET
Protocol: (§3) Mouse anti-human IgG was immobilized on a CM4 sensor chip with a final surface density of ˜2000 resonance units (RUs). A reference flow cell surface was also prepared on this sensor chip using identical immobilization protocol. Test and control article antibodies were prepared at 5-20 nM in instrument buffer (HBS-EP buffer; 0.01M HEPES, pH 7.4, 0.15M NaCl, 3 mM EDTA, and 0.005% P-20), along with 3-fold serial dilutions of purified EGFR (0.27-200 nM human, 0.4-900 nM cyno, and 4-1000 nM murine) or cMET proteins (0.27-66 nM human and 0.27-22 nM cyno) in instrument buffer. A sequential approach was utilized for kinetic measurements. Antibodies were first injected over the capture surface, at a flow rate of 10 μL/minute. Once the binding of the captured antibody stabilized, a single concentration of the analyte was injected over both capture and reference surfaces, at a flow rate of 75 μL/minute. The resulting binding response curves yielded the association phase data. Following the injection of analyte, the flow was then switched back to instrument buffer for 15 minutes to permit the collection of dissociation phase data, followed by a 1-minute pulse of 10 mM glycine, pH 1.5, to regenerate the antibody-captured surface on the chip. Binding responses against test and control article antibodies were recorded from duplicate injections of each concentration of analyte. In addition, several buffer injections were interspersed throughout the injection series. Select buffer injections were used along with the reference cell responses to correct the raw data sets for injection artifacts and/or nonspecific binding interactions, commonly referred to as “double referencing”. Corrected binding data were globally fit to a 1:1 binding model (Biacore T200 Evaluation software 2.0, GE Healthcare, Pittsburgh, PA).
(§4) Kinetic measurements to soluble monomeric forms of EGFR and cMET were performed using a BIACore instrument.

[3] = biological target: T4, human EGFR (recombinant, soluble monomeric) (human, UniProt P00533 25-645); experiment: as above
T4 construct: also called EGFR antigen
Protocol: as §3, §4

[4] = biological target: T5, cynomolgus monkey EGFR (recombinant, soluble monomeric) (cynomolgus monkey, UniProt P55245 25-645 (rhesus entry)); experiment: as above
T5 construct: also called cyno EGFR
Protocol: as §3, §4

mouse EGFR (recombinant) = biological target: T6, mouse EGFR (recombinant) (mouse, UniProt Q01279 25-647); experiment: as above
T6 construct: also called murine EGFR
Protocol: as §3, §4

[5] = biological target: T7, human cMET (recombinant, soluble monomeric) (human, UniProt P08581 25-932); experiment: as above
T7 construct: also called cMET antigen; His-tagged cMET antigen
Protocol: as §3, §4

T7 sequence (P08581 25-932): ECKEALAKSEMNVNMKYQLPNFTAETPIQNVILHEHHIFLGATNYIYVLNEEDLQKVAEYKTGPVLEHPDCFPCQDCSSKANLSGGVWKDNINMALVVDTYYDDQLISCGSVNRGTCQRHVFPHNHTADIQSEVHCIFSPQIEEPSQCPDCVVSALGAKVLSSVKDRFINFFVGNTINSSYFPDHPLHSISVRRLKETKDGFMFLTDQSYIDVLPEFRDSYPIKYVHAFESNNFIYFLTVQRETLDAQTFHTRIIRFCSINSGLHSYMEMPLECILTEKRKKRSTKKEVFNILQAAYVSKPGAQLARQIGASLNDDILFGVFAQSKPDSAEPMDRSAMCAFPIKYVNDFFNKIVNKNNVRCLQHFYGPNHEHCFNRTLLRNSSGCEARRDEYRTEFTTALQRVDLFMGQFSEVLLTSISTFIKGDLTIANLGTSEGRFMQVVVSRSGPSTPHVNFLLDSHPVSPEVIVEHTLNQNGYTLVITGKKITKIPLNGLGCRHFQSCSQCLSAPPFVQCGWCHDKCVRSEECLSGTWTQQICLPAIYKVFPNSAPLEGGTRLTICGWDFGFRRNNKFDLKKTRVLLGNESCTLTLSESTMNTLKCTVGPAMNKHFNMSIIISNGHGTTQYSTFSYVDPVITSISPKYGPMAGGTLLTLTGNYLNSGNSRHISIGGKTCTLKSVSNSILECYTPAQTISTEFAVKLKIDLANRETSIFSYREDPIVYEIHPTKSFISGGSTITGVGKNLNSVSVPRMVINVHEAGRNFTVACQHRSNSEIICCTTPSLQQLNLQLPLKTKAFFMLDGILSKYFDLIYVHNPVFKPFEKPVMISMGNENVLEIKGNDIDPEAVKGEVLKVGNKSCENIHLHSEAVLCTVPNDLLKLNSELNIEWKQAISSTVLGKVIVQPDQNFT
T3 sequence (A0M8R7 25-932 S170N/I621T): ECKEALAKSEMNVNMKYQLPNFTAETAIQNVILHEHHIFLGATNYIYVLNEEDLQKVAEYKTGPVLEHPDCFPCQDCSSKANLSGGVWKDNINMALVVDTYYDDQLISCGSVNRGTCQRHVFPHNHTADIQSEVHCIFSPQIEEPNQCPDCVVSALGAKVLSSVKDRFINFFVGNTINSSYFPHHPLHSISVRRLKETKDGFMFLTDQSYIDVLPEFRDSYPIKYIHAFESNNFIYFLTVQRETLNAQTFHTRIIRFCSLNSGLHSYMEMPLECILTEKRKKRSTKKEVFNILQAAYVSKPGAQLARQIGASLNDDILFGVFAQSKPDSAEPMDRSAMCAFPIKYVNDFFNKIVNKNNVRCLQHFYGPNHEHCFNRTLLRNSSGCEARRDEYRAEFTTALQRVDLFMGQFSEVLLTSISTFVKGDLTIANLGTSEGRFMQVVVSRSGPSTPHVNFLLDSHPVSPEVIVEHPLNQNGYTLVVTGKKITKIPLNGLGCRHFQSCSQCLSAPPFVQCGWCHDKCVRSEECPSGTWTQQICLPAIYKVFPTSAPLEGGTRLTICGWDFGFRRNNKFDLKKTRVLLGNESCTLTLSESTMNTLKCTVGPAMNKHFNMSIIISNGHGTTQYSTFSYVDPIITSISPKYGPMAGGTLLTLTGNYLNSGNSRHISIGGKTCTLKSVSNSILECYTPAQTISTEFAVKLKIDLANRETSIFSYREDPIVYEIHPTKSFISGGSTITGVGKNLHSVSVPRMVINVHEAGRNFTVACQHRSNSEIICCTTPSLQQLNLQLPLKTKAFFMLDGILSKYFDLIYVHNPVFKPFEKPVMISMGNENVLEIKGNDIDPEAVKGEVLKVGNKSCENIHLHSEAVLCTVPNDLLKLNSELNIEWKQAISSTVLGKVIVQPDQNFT
Sequence of mouse cMET (recombinant) (P16056 25-929 limits assumed): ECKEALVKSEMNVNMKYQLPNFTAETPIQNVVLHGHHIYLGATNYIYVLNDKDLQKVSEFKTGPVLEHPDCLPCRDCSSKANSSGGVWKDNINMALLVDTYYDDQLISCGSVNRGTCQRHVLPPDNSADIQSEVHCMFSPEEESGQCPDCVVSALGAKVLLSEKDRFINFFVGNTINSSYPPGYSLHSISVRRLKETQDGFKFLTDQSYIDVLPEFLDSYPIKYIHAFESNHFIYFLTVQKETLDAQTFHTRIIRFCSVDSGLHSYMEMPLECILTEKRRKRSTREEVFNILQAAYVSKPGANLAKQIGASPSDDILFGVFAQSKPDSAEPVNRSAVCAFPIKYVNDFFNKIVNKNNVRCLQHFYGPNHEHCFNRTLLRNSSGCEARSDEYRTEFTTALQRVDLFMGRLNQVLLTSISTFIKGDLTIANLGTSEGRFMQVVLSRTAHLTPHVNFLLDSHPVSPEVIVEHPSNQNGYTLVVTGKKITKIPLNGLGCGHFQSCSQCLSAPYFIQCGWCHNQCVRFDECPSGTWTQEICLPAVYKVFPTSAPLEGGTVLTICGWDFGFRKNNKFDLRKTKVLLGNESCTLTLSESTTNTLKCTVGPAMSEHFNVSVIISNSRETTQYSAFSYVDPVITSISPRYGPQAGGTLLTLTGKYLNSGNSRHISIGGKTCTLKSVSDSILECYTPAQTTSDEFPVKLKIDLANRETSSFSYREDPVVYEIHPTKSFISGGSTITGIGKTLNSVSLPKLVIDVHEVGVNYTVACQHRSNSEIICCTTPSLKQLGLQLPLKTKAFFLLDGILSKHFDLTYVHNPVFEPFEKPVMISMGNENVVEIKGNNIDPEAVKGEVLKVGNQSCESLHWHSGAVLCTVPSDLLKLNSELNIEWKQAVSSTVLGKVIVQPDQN
Sequence of c-MET receptor on the cell surface (H1975 cells) (P08581 25-1390): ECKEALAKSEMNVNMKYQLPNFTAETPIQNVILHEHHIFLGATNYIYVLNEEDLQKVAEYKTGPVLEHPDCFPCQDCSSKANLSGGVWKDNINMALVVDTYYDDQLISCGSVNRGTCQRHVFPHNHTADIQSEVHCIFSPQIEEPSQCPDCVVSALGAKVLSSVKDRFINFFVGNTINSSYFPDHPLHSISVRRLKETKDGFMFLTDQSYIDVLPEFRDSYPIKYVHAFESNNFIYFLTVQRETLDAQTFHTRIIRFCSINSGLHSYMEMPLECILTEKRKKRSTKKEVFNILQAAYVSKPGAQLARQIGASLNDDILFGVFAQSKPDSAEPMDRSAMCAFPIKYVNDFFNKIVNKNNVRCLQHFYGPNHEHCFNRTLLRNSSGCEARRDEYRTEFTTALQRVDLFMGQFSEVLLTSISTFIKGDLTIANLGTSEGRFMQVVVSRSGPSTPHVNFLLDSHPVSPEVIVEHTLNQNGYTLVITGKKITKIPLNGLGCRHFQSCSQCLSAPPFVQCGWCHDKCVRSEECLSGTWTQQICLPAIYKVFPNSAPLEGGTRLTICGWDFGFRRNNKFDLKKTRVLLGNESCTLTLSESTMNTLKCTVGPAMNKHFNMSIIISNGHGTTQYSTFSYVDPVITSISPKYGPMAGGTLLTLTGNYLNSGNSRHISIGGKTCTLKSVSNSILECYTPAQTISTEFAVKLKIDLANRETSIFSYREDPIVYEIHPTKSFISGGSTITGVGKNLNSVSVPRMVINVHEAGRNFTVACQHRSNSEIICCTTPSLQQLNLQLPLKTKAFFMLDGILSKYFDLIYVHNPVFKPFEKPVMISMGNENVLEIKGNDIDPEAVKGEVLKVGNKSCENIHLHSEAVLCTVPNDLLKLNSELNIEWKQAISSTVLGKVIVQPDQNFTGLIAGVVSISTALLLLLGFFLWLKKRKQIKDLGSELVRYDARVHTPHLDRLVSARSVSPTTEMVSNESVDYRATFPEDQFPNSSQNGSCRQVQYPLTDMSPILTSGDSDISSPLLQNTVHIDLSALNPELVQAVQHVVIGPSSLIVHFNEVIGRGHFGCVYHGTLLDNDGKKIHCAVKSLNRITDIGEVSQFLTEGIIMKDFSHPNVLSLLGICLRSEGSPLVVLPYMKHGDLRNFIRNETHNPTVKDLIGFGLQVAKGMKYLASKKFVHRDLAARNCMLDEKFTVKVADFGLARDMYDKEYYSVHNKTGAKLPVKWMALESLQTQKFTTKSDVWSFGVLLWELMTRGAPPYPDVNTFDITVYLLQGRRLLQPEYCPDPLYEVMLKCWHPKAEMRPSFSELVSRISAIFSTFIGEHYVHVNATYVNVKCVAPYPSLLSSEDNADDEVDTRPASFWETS

Binder | binding result (mouse cMET (recombinant)) | binding result (Ron (CD136)) | binding result (Semaphorin 3a) | cytoplasmic intensity (AlexaFluor647, confocal microscopy, H1975 cells): fold higher for RAA22/B09 DuetMab than for B09-IgG [1] [fold] | Kd [2] [nM] | koff [2] [s⁻¹] | kon [2] [M⁻¹ s⁻¹] | Kd [3] [nM] | koff [3] [s⁻¹] | kon [3] [M⁻¹ s⁻¹] | Kd [4] [nM] | koff [4] [s⁻¹] | kon [4] [M⁻¹ s⁻¹] | Kd (mouse EGFR (recombinant)) [nM] | koff (mouse EGFR (recombinant)) [s⁻¹] | kon (mouse EGFR (recombinant)) [M⁻¹ s⁻¹] | Kd [5] [nM] | koff [5] [s⁻¹] | kon [5] [M⁻¹ s⁻¹]
QD6 IgG (antibody, V domains shown, also called anti-EGFR antibody clone QD6) VH: QVQLVQSGAEVKKPGSSVKVSCKASGGTFSDNDFSWVRQAPGQGLEWMGAIVAVVRTETYAQKFQDRVKITADISTRTTYMELSSLRSEDTAVYYCARRLMSAISGPGAPLLMWGQGTLVTVSS VL: QSALTQPRSVSGSPGQSVTISCTGTSSDVGGYNYVSWYQQHPGKAPKLMIYDVSERPSGVPDRFSGSKSGNTASLTISGLQAEDEADYYCFSYTSSDTLEIFGGGTKLTVL | no binding (tested: 10 µg/mL) | no binding (tested: 10 µg/mL) | no binding (tested: 10 µg/mL) | – | – | – | – | – | – | – | – | – | – | – | – | – | – | – | –
B09/IgG single-arm control antibody (bispecific antibody, part only; not given: non-binding control arm, V domains shown, part only) VH: QVQLVQSGAEVKKPGASVKVSCKASGYTFTDYYIHWVRQATGQGLEWMGWMNPNSGNTGYAQKFQGRVTMTRDTSISTAYMELSSLRSEDTAVYYCARGQGYTHSWGQGTMVTVSS VL: DIQMTQSPSTLSASVGDRVTITCRASEGIYHWLAWYQQKPGKAPKLLIYKASSLASGVPSRFSGSGSGTEFTLTISSLQPDDFATYYCQQYSNYPPTFGGGTKLEIK | – | – | – | 4.7 | – | – | – | – | – | – | – | – | – | – | – | – | – | – | –
QD6/B09-57 DuetMab (bispecific antibody, V domains shown, also called QD6/B09 DuetMab; QD6/B09-AlexaFluor647) VH 1: QVQLVQSGAEVKKPGSSVKVSCKASGGTFSDNDFSWVRQAPGQGLEWMGAIVAVVRTETYAQKFQDRVKITADISTRTTYMELSSLRSEDTAVYYCARRLMSAISGPGAPLLMWGQGTLVTVSS VL 1: QSALTQPRSVSGSPGQSVTISCTGTSSDVGGYNYVSWYQQHPGKAPKLMIYDVSERPSGVPDRFSGSKSGNTASLTISGLQAEDEADYYCFSYTSSDTLEIFGGGTKLTVL VH 2: QVQLVQSGAEVKKPGASVKVSCKASGYTFTDYYIHWVRQATGQGLEWMGWMNPNSGNTGYAQKFQGRVTMTRDTSISTAYMELSSLRSEDTAVYYCARGQGYTHSWGQGTMVTVSS VL 2: DIQMTQSPSTLSASVGDRVTITCRASEGIYHWLAWYQQKPGKAPKLLIYKASSLASGVPSRFSGSGSGTEFTLTISSLQPDDFATYYCQQYSNYPPTFGGGTKLEIK | no binding (tested: 10 µg/mL) | no binding (tested: 10 µg/mL) | no binding (tested: 10 µg/mL) | – | 2.2 | 0.00206 | 958000 | 5.9 | 0.000374 | 63500 | 2.8 | 0.000585 | 210000 | 6.2 | 0.00078 | 126000 | 1.6 | 0.000696 | 425000
